Target: human nascent polypeptide-associated complex (NAC), unlabeled (human, UniProt Q13765 1-215; P20290-2 1-162)
Test: other fluorescence titration; competition: 1 nM RNC^BDP and 20 nM NAC^Cy3B pre-incubated, unlabeled NAC or NACmt added; FRET fit to Eq. (6); Assay buffer with 1 mg/mL BSA
Settings: both partners purified

Binder	Kd [nM]
ribosome-nascent chain complex bearing the first ~90 amino acids of pPL(ssmt), labelled with BODIPY-FL on the nascent chain (complex, axial-trans-cyclooct-2-en-L-Lysine (TCOK) at an amber codon one residue upstream of the signal sequence, labelled with tetrazine-conjugated BODIPY-FL (BDP)) MDSKGSSQKGSKLLLRRVVSNLLLCQGVVSTPVCPNGPGNCQVSLRDLFDRAVMVSHYIHDLSSEMFNEFDKRYAQGKGFITMALNSCHTV	0.5
ribosome-nascent chain complex bearing the first ~90 amino acids of pPL(ss), labelled with BODIPY-FL on the nascent chain (complex, axial-trans-cyclooct-2-en-L-Lysine (TCOK) at an amber codon one residue upstream of the signal sequence, labelled with tetrazine-conjugated BODIPY-FL (BDP)) MDSKGSSQKGSKLALALLLLLLALALCQGVVSTPVCPNGPGNCQVSLRDLFDRAVMVSHYIHDLSSEMFNEFDKRYAQGKGFITMALNSCHTV	0.55

From article PMC7673040 (Nature Communications, 2020)
